B1: CPXM2 (parent)
chain: EILGCPLPDPNNYYHRRNEMTTTD

Results on 94 variants are retold here after the supplement of paper PMC10567573.
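Also: lentivirally expressed fusions sorted by FACS into six bins by GFP to DsRed ratio, PSI derived from sequencing read proportions per bin multiplied by bin number.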

In the series the parent is B1. Nature of the series: protein stability index of a GFP-peptide fusion (GPS, HEK-293T) (PSI 1-6); higher = more stable. As to conditions: c terminus: a fixed tail appended.
As for EILGCPLCDPNNYYHRRNEMTTTD [P8C], the protein stability index turned out to be 2.4.
In the case of EILGCPLQDPNNYYHRRNEMTTTD [P8Q], the protein stability index was found to be 3.56.
Turning to EILGCPLTDPNNYYHRRNEMTTTD [P8T], the protein stability index turned out to be 3.12.
Regarding EILGCPLLDPNNYYHRRNEMTTTD [P8L], the protein stability index is 2.66.
Regarding EILGCPLFDPNNYYHRRNEMTTTD [P8F], the protein stability index came to 2.61.
In the case of EILGCPLHDPNNYYHRRNEMTTTD [P8H], the protein stability index was 2.82.
With EILGCPLDDPNNYYHRRNEMTTTD [P8D], the protein stability index was 4.22.
As to EILGCPLSDPNNYYHRRNEMTTTD [P8S], the protein stability index worked out at 3.17.
EILGCPLYDPNNYYHRRNEMTTTD [P8Y]: the protein stability index amounted to 2.71.
EILGCPLRDPNNYYHRRNEMTTTD [P8R]: the protein stability index was found to be 3.56.
On to EILGCPLPDPNNYYGRRNEMTTTD [H15G], for which the protein stability index is 3.88.
Regarding EILGCPLPDPNNYYKRRNEMTTTD [H15K], the protein stability index was 3.76.
With EILGCPLPDPNNYYERRNEMTTTD [H15E], the protein stability index was 3.62.
For the variant EILGCPLPDPNNYYTRRNEMTTTD [H15T], the protein stability index came to 3.76.
For the variant EILGCPLPDPNNYYYRRNEMTTTD [H15Y], the protein stability index came to 3.16.
Regarding EILGCPLPDPNNYYARRNEMTTTD [H15A], the protein stability index turned out to be 3.71.
Then EILGCPLPDPNNYYWRRNEMTTTD [H15W], with 2.91.
The result for EILGCPLPDPNNYYCRRNEMTTTD [H15C] reads 2.71; that for EILGCPLPDPNNYYRRRNEMTTTD [H15R], 3.31; that for EILGCPLPDPNNYYVRRNEMTTTD [H15V], 3.1.
Then EILGCPLPDPNNYYNRRNEMTTTD [H15N], with 3.68; and EILGCPLPDPNNYYQRRNEMTTTD [H15Q], with 3.96.
On to EILGCPLPDPNNYYPRRNEMTTTD [H15P], for which the protein stability index was 3.64.
The result for EILGCPLPDPNNYYDRRNEMTTTD [H15D] reads 4.42; that for EILGCPLPDPNNYYSRRNEMTTTD [H15S], 3.56; that for EILGCPLPDPNNYYIRRNEMTTTD [H15I], 3.52.
With EILGCPLPDPNNYYMRRNEMTTTD [H15M], the protein stability index came out at 3.23.
In the case of EILGCPLPDPNNYYLRRNEMTTTD [H15L], the protein stability index turned out to be 3.21.
As for EILGCPLPDPNNYYFRRNEMTTTD [H15F], the protein stability index was 3.33.
The result for EILGCPLPDPNNYFHRRNEMTTTD [Y14F] reads 3.69; that for EILGCPLPDPNNYKHRRNEMTTTD [Y14K], 3.88.
Then EILGCPLPDPNNYAHRRNEMTTTD [Y14A], with 4.18; and EILGCPLPDPNNYQHRRNEMTTTD [Y14Q], with 3.96.
Then EILGCPLPDPNNYSHRRNEMTTTD [Y14S], with 4.38; and EILGCPLPDPNNYEHRRNEMTTTD [Y14E], with 4.59.
In the case of EILGCPLPDPNNYDHRRNEMTTTD [Y14D], the protein stability index came to 4.31.
EILGCPLPDPNNYHHRRNEMTTTD [Y14H]: the protein stability index was determined as 3.84.
As to EILGCPLPDPNNYWHRRNEMTTTD [Y14W], the protein stability index came to 3.75.
Then EILGCPLPDPNNYGHRRNEMTTTD [Y14G], with 4.13; and EILGCPLPDPNNYMHRRNEMTTTD [Y14M], with 3.57.
For the variant EILGCPLPDPNNYNHRRNEMTTTD [Y14N], the protein stability index was determined as 4.17.
For the variant EILGCPLPDPNNYLHRRNEMTTTD [Y14L], the protein stability index is 3.68.
Regarding EILGCPLPDPNNYVHRRNEMTTTD [Y14V], the protein stability index is 3.81.
Take EILGCPLPDPNNYTHRRNEMTTTD [Y14T]: the protein stability index is 4.29.
The result for EILGCPLPDPNNYCHRRNEMTTTD [Y14C] reads 4.04.
Consider EILGCPLPDPNNYIHRRNEMTTTD [Y14I], for which the protein stability index was determined as 3.46.
For the variant EILGCPLPDPNNYPHRRNEMTTTD [Y14P], the protein stability index stood at 4.41.
Take EILGCPLPDPNNYRHRRNEMTTTD [Y14R]: the protein stability index was determined as 3.92.
Take EILGCTLPDPNNYYHRRNEMTTTD [P6T]: the protein stability index was 3.49.
Consider EILGCVLPDPNNYYHRRNEMTTTD [P6V], for which the protein stability index turned out to be 2.48.
Turning to EILGCQLPDPNNYYHRRNEMTTTD [P6Q], the protein stability index is 2.92.
For the variant EILGCSLPDPNNYYHRRNEMTTTD [P6S], the protein stability index worked out at 3.4.
Then EILGCYLPDPNNYYHRRNEMTTTD [P6Y], with 2.44.
On to EILGCWLPDPNNYYHRRNEMTTTD [P6W], for which the protein stability index came to 2.46.
The result for EILGCNLPDPNNYYHRRNEMTTTD [P6N] reads 2.8; that for EILGCRLPDPNNYYHRRNEMTTTD [P6R], 2.84; that for EILGCPLPDPNWYYHRRNEMTTTD [N12W], 2.79.
On to EILGCPLPDPNDYYHRRNEMTTTD [N12D], for which the protein stability index worked out at 4.07.
As to EILGCPLPDPNLYYHRRNEMTTTD [N12L], the protein stability index amounted to 3.42.
Take EILGCPLPDPNTYYHRRNEMTTTD [N12T]: the protein stability index worked out at 3.17.
Turning to EILGCPLPDPNYYYHRRNEMTTTD [N12Y], the protein stability index came to 3.35.
As for EILGCPLPDPNGYYHRRNEMTTTD [N12G], the protein stability index is 2.85.
As to EILGCPLPDPNMYYHRRNEMTTTD [N12M], the protein stability index is 3.41.
The result for EILGCPLPDPNQYYHRRNEMTTTD [N12Q] reads 3.73; that for EILGCPLPDPNPYYHRRNEMTTTD [N12P], 3.45.
For EILGCPLPDPNRYYHRRNEMTTTD [N12R], the protein stability index was found to be 3.35.
As to EILGCPLPDPNIYYHRRNEMTTTD [N12I], the protein stability index stood at 3.05.
Then EILGCPLPDPNSYYHRRNEMTTTD [N12S], with 3.09; and EILGCPLPDPNAYYHRRNEMTTTD [N12A], with 3.67; and EILGCPLPDPNKYYHRRNEMTTTD [N12K], with 2.77.
Turning to EILGCPLPDPNVYYHRRNEMTTTD [N12V], the protein stability index amounted to 3.17.
Turning to EILGCPLPDPNCYYHRRNEMTTTD [N12C], the protein stability index is 3.44.
On to EILGCPLPDPNHYYHRRNEMTTTD [N12H], for which the protein stability index worked out at 3.36.
Take EILGCPLPDPNEYYHRRNEMTTTD [N12E]: the protein stability index amounted to 3.85.
As for EILGCPLPDPNFYYHRRNEMTTTD [N12F], the protein stability index was 2.5.
The result for EILGCPLPPPNNYYHRRNEMTTTD [D9P] reads 3.26; that for EILGCPLPCPNNYYHRRNEMTTTD [D9C], 3.17; that for EILGCPLPHPNNYYHRRNEMTTTD [D9H], 2.39.
As to EILGCPLPSPNNYYHRRNEMTTTD [D9S], the protein stability index came to 3.24.
As for EILGCPLPYPNNYYHRRNEMTTTD [D9Y], the protein stability index was 2.75.
For EILGCPLPGPNNYYHRRNEMTTTD [D9G], the protein stability index turned out to be 3.03.
The result for EILGCPLPIPNNYYHRRNEMTTTD [D9I] reads 2.59; that for EILGCPLPTPNNYYHRRNEMTTTD [D9T], 3.25; that for EILGCPLPEPNNYYHRRNEMTTTD [D9E], 3.15.
The result for EILGCPLPVPNNYYHRRNEMTTTD [D9V] reads 3.04; that for EILGCPLPQPNNYYHRRNEMTTTD [D9Q], 3.35; that for EILGCPLPAPNNYYHRRNEMTTTD [D9A], 3.07.
Regarding EILGCPLPMPNNYYHRRNEMTTTD [D9M], the protein stability index was found to be 2.92.
For EILGCPLPWPNNYYHRRNEMTTTD [D9W], the protein stability index came to 2.44.
For EILGCPLPLPNNYYHRRNEMTTTD [D9L], the protein stability index was 3.05.
Take EILGCPLPNPNNYYHRRNEMTTTD [D9N]: the protein stability index amounted to 3.18.
Regarding EILGCPLPFPNNYYHRRNEMTTTD [D9F], the protein stability index stood at 2.68.
For the variant EILGCPLPRPNNYYHRRNEMTTTD [D9R], the protein stability index is 3.34.
Consider EILGCPLPKPNNYYHRRNEMTTTD [D9K], for which the protein stability index stood at 2.85.
